These results are taken from paper doi:10.1101/2024.04.27.591446 (bioRxiv, 2024).

The target of one test is SARS-CoV1 Spike (SARS-CoV, strain  (P59594 …, UniProt P59594)). In words: ELISA.
The target of another test is SARS-CoV-2 RBD WU1 (SARS-CoV-2 Wuhan-Hu-1, UniProt P0DTC2). Description: SPR. A general note: In SPR one partner is held on a chip, and binding of the other changes the refractive index at the surface.

B1: 1301B7 recombinant human monoclonal antibody (hmAb), IgG1 (antibody, V domains shown)
VH: EVQLVESGAEVKNPGSSVKVSCKASEGTFGSYPIIWVRQAPGQGLEWVGGIIPILGTVIYAQKFQGRVTITGDTYAGSAHMELSGLRSEDTAVFYCARGSYDYGDRLLNYTYYAMDVWGPGTTVTVSS
VL: QPGLTQPPSVSGAPGQRVTISCTGSRSNIGAVYAVHWYQHVPGAAPKLLIYENNNRPSGIPDRFSGSKSGTSASLVITGLQAEDEADYLCQSYDRSVGVVFGGGTRLTVL
As for B1, the binding result with SARS-CoV1 Spike and in the test with SARS-CoV-2 RBD WU1 was “binds” each time.
